In patent publication EP3875478A1:
Blank lines part the entries; values can stand above or below the substance they belong to.

Assays:
human IgG1 (human) = experiment: Biacore (SPR), format not described
[1] = target: CD64K130Y CAR (CD64 K130Y - TMCD8 - 4-1BB - full CD3z) on primary T lymphocytes (human); experiment: cell-based or functional assay
[2] = target: CD64R175A CAR (CD64 R175A - TMCD8 - CD28 - CD3z) on primary T lymphocytes (human); experiment: cell-based or functional assay
[3] = target: CD64wt-Bbz CAR (native CD64 - TMCD8 - 4-1BB - CD3z) on primary T lymphocytes (human); experiment: cell-based or functional assay
[4] = target: CD64K130S CAR (4-1BB-CD3z) on primary T lymphocytes (human); experiment: cell-based or functional assay
[5] = target: CD64+V172-28z CAR (CD64 with insertion of Valine at 172 - TMCD8 - CD28 - truncated CD3z) on primary T lymphocytes (human); experiment: cell-based or functional assay

Substance: CD64 with K130H mutation, as measured by Biacore (receptor)
- Kd (human IgG1 (human)): 53 nM
- fold lower affinity for IgG1 than native CD64 (human IgG1 (human)): 5 fold

Substance: anti-CD20 antibody IgG1 mutated at Leucine 235 to Alanine
- cytokine secretion, 24h co-culture with Raji, antibody 2 ug/mL, 2,5% Human Serum, mean [1]: 2720
- cytokine secretion, 24h co-culture with Raji, antibody 2 ug/mL, 10% FBS, mean [1]: 6270
- cytokine secretion, 24h co-culture with Raji, antibody 2 ug/mL, 20% Human Serum, mean [1]: 292
- percent inhibition 20%HS vs 10%FBS [1]: 95.3%

Substance: anti-CD22 antibody (m971 clone), IgG1
- cytokine secretion, 24h co-culture with Raji, antibody 2 ug/mL, 10% FBS, mean [2]: 55900
- cytokine secretion, 24h co-culture with Raji, antibody 2 ug/mL, 20% Human Serum, mean [2]: 27000
- percent inhibition 20%HS vs 10%FBS [2]: 51.6%
- cytokine secretion, 24h co-culture with Raji, antibody 2 ug/mL, 10% FBS, mean [1]: 20900
- cytokine secretion, 24h co-culture with Raji, antibody 2 ug/mL, 20% Human Serum, mean [1]: 9580
- percent inhibition 20%HS vs 10%FBS [1]: 54.2%

Substance: anti-CD20 antibody (Rituximab clone), IgG1
- % inhibition 20%HS vs 10%FBS (24h) [3]: 90.3%
- % inhibition 20%HS vs 10%FBS (3 days) [3]: 91.7%
- % inhibition 20%HS vs 10%FBS (7 days) [3]: 69.5%
- % inhibition (72h, 20% human serum vs 10% FBS) [3]: 92.8%
- gamma IFN secretion in proliferation assay, 10% FBS, mean (3 days) [3]: 203000
- gamma IFN secretion in proliferation assay, 10% FBS, mean (7 days) [3]: 107000
- gamma IFN secretion in proliferation assay, 20% human serum, mean (3 days) [3]: 16900
- gamma IFN secretion in proliferation assay, 20% human serum, mean (7 days) [3]: 32600
- gamma interferon secretion, 24h co-culture with Raji, 10% FBS, mean [3]: 12000
- gamma interferon secretion, 24h co-culture with Raji, 20% human serum, mean [3]: 1170
- gamma interferon secretion, 72h co-culture with Raji, 10% FBS, mean [3]: 123000
- gamma interferon secretion, 72h co-culture with Raji, 20% human serum, mean [3]: 8810
- inhibition of proliferation by human serum [3]: 6 fold
- cytokine secretion, 24h co-culture with Raji, antibody 2 ug/mL, 2,5% Human Serum, mean [4]: 5350
- cytokine secretion, 24h co-culture with Raji, antibody 2 ug/mL, 10% FBS, mean [4]: 5410
- cytokine secretion, 24h co-culture with Raji, antibody 2 ug/mL, 20% Human Serum, mean [4]: 2730
- percent inhibition 20%HS vs 10%FBS [4]: 49.5%
- % inhibition 20%HS vs 10%FBS (24h) [5]: 20.4%
- % inhibition 20%HS vs 10%FBS (3 days) [5]: 40.2%
- % inhibition 20%HS vs 10%FBS (7 days) [5]: 51.7%
- % inhibition (72h, 20% human serum vs 10% FBS) [5]: 31.5%
- gamma IFN secretion in proliferation assay, 10% FBS, mean (3 days) [5]: 438000
- gamma IFN secretion in proliferation assay, 10% FBS, mean (7 days) [5]: 753000
- gamma IFN secretion in proliferation assay, 20% human serum, mean (3 days) [5]: 262000
- gamma IFN secretion in proliferation assay, 20% human serum, mean (7 days) [5]: 364000
- gamma interferon secretion, 24h co-culture with Raji, 10% FBS, mean [5]: 11500
- gamma interferon secretion, 24h co-culture with Raji, 20% human serum, mean [5]: 9130
- gamma interferon secretion, 72h co-culture with Raji, 10% FBS, mean [5]: 399000
- gamma interferon secretion, 72h co-culture with Raji, 20% human serum, mean [5]: 273000
- inhibition of proliferation by human serum [5]: 38%

The remaining lines, values ahead:

- Kd (human IgG1 (human)): 74 nM
- fold reduction of the affinity of CD64 for IgG1 (human IgG1 (human)): 7 fold
Substance: CD64 with K130S, as measured by Biacore (receptor)

- Kd (human IgG1 (human)): 10 nM
Substance: native CD64 (human high affinity Fc gamma receptor alpha chain), as measured by Biacore
